Measurements: PMC10294536

Experiments:
Conditions in all cases: reference: EGFP-HURP wild type; sites S725
[1] = molecular target: GP73 (UniProt Q8NBJ4); assay: co-IP of EGFP-HURP with GP73
[2] = molecular target: GM130 (UniProt Q08379); assay: co-IP of EGFP-HURP with GM130
[3] = molecular target: GRASP65 (UniProt Q9BQQ3); assay: co-IP of EGFP-HURP with GRASP65

Measured: binding against the reference

HURP (from UniProt Q15398) EGFP-HURP 725A
lost: all assays above
